Test system: Escherichia coli TOP10
Assay: shrunken log2 fold change of peptide-encoding DNA abundance (4.5 h post-induction vs induction); higher = less antimicrobial activity (less host growth inhibition)
Settings: time post-induction: 4.5 h; library: site-saturation at positions 5, 18, 19, 20
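Further: peptides expressed intracellularly from a pBAD plasmid library in pooled LB shake-flask culture, induced with 0.3% L-arabinose, DNA abundance read by NGS, three biological replicates, DESeq2 with apeglm shrinkage.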

Sequence	shrunken log2 fold change
RRIRIRPPRLPRPRPRPVLVPRP	0.0259
RRIRIRPPRLPRPRPRPVSHPRP	0.113
RRIRKRPPRLPRPRPRPCTTPRP	-0.132
RRIRLRPPRLPRPRPRPMARPRP	0.0339
RRIRHRPPRLPRPRPRPLGNPRP	0.017
RRIRHRPPRLPRPRPRPFENPRP	-0.0293
RRIRCRPPRLPRPRPRPYHLPRP	-0.0832
RRIRCRPPRLPRPRPRPAMQPRP	0.0643
RRIRFRPPRLPRPRPRPRTTPRP	0.299
RRIRKRPPRLPRPRPRPLWNPRP	0.109
RRIRQRPPRLPRPRPRPAKHPRP	0.204
RRIRKRPPRLPRPRPRPWFWPRP	0.442
RRIRQRPPRLPRPRPRPRLRPRP	0.44
RRIRCRPPRLPRPRPRPCMMPRP	-0.914
RRIRMRPPRLPRPRPRPCYAPRP	-0.105
RRIRARPPRLPRPRPRPTLSPRP	0.801
RRIRNRPPRLPRPRPRPRIKPRP	0.0822
RRIRNRPPRLPRPRPRPSCFPRP	-0.398
RRIRNRPPRLPRPRPRPAFIPRP	-0.579
RRIRWRPPRLPRPRPRPPVTPRP	0.283
RRIRQRPPRLPRPRPRPLSQPRP	-0.0534
RRIRSRPPRLPRPRPRPDQSPRP	0.217

Sequence	shrunken log2 fold change
RRIRERPPRLPRPRPRPAMVPRP	0.037
RRIRIRPPRLPRPRPRPWEAPRP	0.0112
RRIRRRPPRLPRPRPRPWFIPRP	0.0648
RRIRCRPPRLPRPRPRPAYHPRP	-0.436
RRIRYRPPRLPRPRPRPSEDPRP	-0.123
RRIRGRPPRLPRPRPRPIVYPRP	-0.0951
RRIRRRPPRLPRPRPRPIPRPRP	0.625
RRIRIRPPRLPRPRPRPKMPPRP	0.0103
RRIRHRPPRLPRPRPRPKWLPRP	0.333
RRIRERPPRLPRPRPRPLELPRP	0.086
RRIRERPPRLPRPRPRPMIPPRP	-0.0272
RRIRKRPPRLPRPRPRPMMPPRP	0.234
RRIRQRPPRLPRPRPRPTWFPRP	0.104
RRIRCRPPRLPRPRPRPFHMPRP	-0.36
RRIRKRPPRLPRPRPRPCVTPRP	0.0632
RRIRKRPPRLPRPRPRPMEKPRP	-0.0153
RRIRSRPPRLPRPRPRPGPFPRP	0.00218
RRIRRRPPRLPRPRPRPAAKPRP	0.267
RRIRERPPRLPRPRPRPLEFPRP	-0.542
RRIRYRPPRLPRPRPRPHSFPRP	-0.00356
RRIRCRPPRLPRPRPRPYFGPRP	-0.0436
RRIRERPPRLPRPRPRPVLPPRP	-0.0942

Sequence	shrunken log2 fold change
RRIRDRPPRLPRPRPRPCWFPRP	-0.0292
RRIRNRPPRLPRPRPRPTTNPRP	0.365
RRIRGRPPRLPRPRPRPSWIPRP	-0.0436
RRIRLRPPRLPRPRPRPSTQPRP	-0.337
RRIRARPPRLPRPRPRPHAEPRP	0.955
RRIRPRPPRLPRPRPRPRCHPRP	0.144
RRIRWRPPRLPRPRPRPHPVPRP	-0.0118
RRIRGRPPRLPRPRPRPCCDPRP	0.769
RRIRPRPPRLPRPRPRPTDYPRP	-0.132
RRIRGRPPRLPRPRPRPFGWPRP	0.741
RRIRPRPPRLPRPRPRPFFAPRP	0.468
RRIRTRPPRLPRPRPRPQWCPRP	-0.0353
RRIRQRPPRLPRPRPRPQRLPRP	-0.0136
RRIRTRPPRLPRPRPRPHIQPRP	-0.0986
RRIRQRPPRLPRPRPRPKQKPRP	-0.0585
RRIRERPPRLPRPRPRPCVPPRP	0.0169
RRIRIRPPRLPRPRPRPCFAPRP	-0.1
RRIRHRPPRLPRPRPRPYTDPRP	-0.000921
RRIRCRPPRLPRPRPRPRNSPRP	-0.113
RRIRKRPPRLPRPRPRPEKDPRP	0.518
RRIRRRPPRLPRPRPRPSCLPRP	-0.172
RRIRRRPPRLPRPRPRPSVQPRP	0.184

Sequence	shrunken log2 fold change
RRIRYRPPRLPRPRPRPYIRPRP	-1.92e-05
RRIRLRPPRLPRPRPRPSTIPRP	-0.246
RRIRKRPPRLPRPRPRPSWKPRP	0.0521
RRIRKRPPRLPRPRPRPRHMPRP	-0.0275
RRIRTRPPRLPRPRPRPGDGPRP	0.393
RRIRLRPPRLPRPRPRPPIFPRP	-0.0913
RRIRWRPPRLPRPRPRPFSTPRP	-0.14
RRIRTRPPRLPRPRPRPAQRPRP	0.356
RRIRFRPPRLPRPRPRPNCIPRP	-0.342
RRIRYRPPRLPRPRPRPPNFPRP	0.0401
RRIRLRPPRLPRPRPRPTTWPRP	0.0965
RRIRDRPPRLPRPRPRPNVCPRP	-0.0195
RRIRERPPRLPRPRPRPPNMPRP	-0.251
RRIRSRPPRLPRPRPRPIDSPRP	-0.0241
RRIRGRPPRLPRPRPRPQHFPRP	0.139
RRIRIRPPRLPRPRPRPEKRPRP	-0.0249
RRIRARPPRLPRPRPRPLPKPRP	0.748
RRIRSRPPRLPRPRPRPYGPPRP	-0.401
RRIRWRPPRLPRPRPRPLLKPRP	-0.0261
RRIRHRPPRLPRPRPRPDCVPRP	-0.383
RRIRPRPPRLPRPRPRPKNHPRP	-0.282
RRIRERPPRLPRPRPRPSREPRP	0.125

Sequence	shrunken log2 fold change
RRIRHRPPRLPRPRPRPFWTPRP	-0.766
RRIRYRPPRLPRPRPRPDIKPRP	-0.602
RRIRSRPPRLPRPRPRPMVHPRP	-0.026
RRIRKRPPRLPRPRPRPQLMPRP	1.59
RRIRERPPRLPRPRPRPLYHPRP	-0.419
RRIRQRPPRLPRPRPRPKAVPRP	-0.00151
RRIRYRPPRLPRPRPRPCYCPRP	-0.185
RRIRHRPPRLPRPRPRPEDDPRP	0.141
RRIRKRPPRLPRPRPRPYIDPRP	-0.194
RRIRLRPPRLPRPRPRPFRTPRP	-0.0778
RRIRNRPPRLPRPRPRPWNTPRP	0.0705
RRIRGRPPRLPRPRPRPDHWPRP	0.186
RRIRMRPPRLPRPRPRPKNYPRP	0.0737
RRIRKRPPRLPRPRPRPRPDPRP	0.446
RRIRWRPPRLPRPRPRPGPSPRP	0.223
RRIRSRPPRLPRPRPRPDINPRP	-0.253
RRIRSRPPRLPRPRPRPPAFPRP	-0.00342
RRIRLRPPRLPRPRPRPRHIPRP	1.19
RRIRRRPPRLPRPRPRPYAQPRP	-0.252
RRIRTRPPRLPRPRPRPNERPRP	-0.0561
RRIRARPPRLPRPRPRPNIWPRP	0.133
